Tests used:
Assay in all cases: SPR
[1] = molecular target: FcγRIIIa-158V, FcγRIIIa-G2FS(2-3) (human)
[2] = molecular target: FcγRIIIa-158V, FcγRIIIa-HEK^WT (human)
[3] = molecular target: FcγRIIIa-158V, FcγRIIIa-Monoantennae (human)
[4] = molecular target: FcγRIIIa-158V, FcγRIIIa-Afucosylated (human)
[5] = molecular target: FcγRIIIa-158V-G2FS(2-3) (human)
[6] = molecular target: FcγRIIIa-158F-HEK^WT (human) (UniProt P08637)
[7] = molecular target: FcγRIIIa-158V-Monoantennae (human)
[8] = molecular target: FcγRIIIa-158V-Oligomannose (human)
[9] = molecular target: FcγRIIIa-158V-Hybrid (human)
[10] = molecular target: FcγRIIIa-158F-Hybrid (human) (UniProt P08637)
FcγRIIIa-158F-Hybrid (human), sequence (P08637 17-208): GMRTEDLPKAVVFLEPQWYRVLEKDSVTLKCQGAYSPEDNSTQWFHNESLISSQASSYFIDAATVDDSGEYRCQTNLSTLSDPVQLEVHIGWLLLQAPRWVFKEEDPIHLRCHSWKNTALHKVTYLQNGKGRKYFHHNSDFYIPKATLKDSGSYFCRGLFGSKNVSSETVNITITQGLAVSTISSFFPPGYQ

[11] = molecular target: FcγRIIIa-158F-CHO^WT (soluble FcγRIIIa, allotype 158F, from wild-type CHO) (human) (UniProt P08637)
FcγRIIIa-158F-CHO^WT (soluble FcγRIIIa, allotype 158F, from wild-type CHO) (human), sequence (P08637 17-208): as above

[12] = molecular target: FcγRIIIa-158V-Afucosylated (human)
[13] = molecular target: biotinylated, recombinant, human FcγRIIIa-158V from SinoBiological (human)
[14] = molecular target: FcγRIIIa-158F-Monoantennae (human) (UniProt P08637)
FcγRIIIa-158F-Monoantennae (human), sequence (P08637 17-208): as above

[15] = molecular target: FcγRIIIa-158F-Afucosylated (human) (UniProt P08637)
FcγRIIIa-158F-Afucosylated (human), sequence (P08637 17-208): as above

[16] = molecular target: FcγRIIIa-158V-HEK^WT (human)
[17] = molecular target: FcγRIIIa-158F-G2FS(2-3) (human) (UniProt P08637)
FcγRIIIa-158F-G2FS(2-3) (human), sequence (P08637 17-208): as above

[18] = molecular target: biotinylated, recombinant, human FcγRIIIa-158F from SinoBiological (human) (UniProt P08637)
biotinylated, recombinant, human FcγRIIIa-158F from SinoBiological (human), sequence (P08637 17-208): as above

[19] = molecular target: FcγRIIIa-158V-G2FS(2-6) (human)
[20] = molecular target: FcγRIIIa-158V-CHO^WT (soluble FcγRIIIa, allotype 158V, from wild-type CHO) (human)
[21] = molecular target: FcγRIIIa-158F-G2FS(2-6) (human) (UniProt P08637)
FcγRIIIa-158F-G2FS(2-6) (human), sequence (P08637 17-208): as above

[22] = molecular target: FcγRIIIa-158V, FcγRIIIa-CHO^WT (human)
FcγRIIIa-158V, FcγRIIIa-CHO^WT (human), sequence (P08637 17-208 F176V): as the sequence (P08637 17-208) above, with F160V counted along it

[23] = molecular target: FcγRIIIa-158V, FcγRIIIa-Oligomannose (human)
FcγRIIIa-158V, FcγRIIIa-Oligomannose (human), sequence (P08637 17-208 F176V): as the sequence (P08637 17-208) above, with F160V counted along it

[24] = molecular target: FcγRIIIa-158V, FcγRIIIa-Hybrid (human)
FcγRIIIa-158V, FcγRIIIa-Hybrid (human), sequence (P08637 17-208 F176V): as the sequence (P08637 17-208) above, with F160V counted along it

[25] = molecular target: FcγRIIIa-158V, FcγRIIIa-G2FS(2-6) (human)
FcγRIIIa-158V, FcγRIIIa-G2FS(2-6) (human), sequence (P08637 17-208 F176V): as the sequence (P08637 17-208) above, with F160V counted along it

FcγRIIIa-158V, FcγRIIIa-G2FS(2-3) (human), sequence (P08637 17-208 F176V): as the sequence (P08637 17-208) above, with F160V counted along it
FcγRIIIa-158V, FcγRIIIa-Afucosylated (human), sequence (P08637 17-208 F176V): as the sequence (P08637 17-208) above, with F160V counted along it
FcγRIIIa-158V, FcγRIIIa-Monoantennae (human), sequence (P08637 17-208 F176V): as the sequence (P08637 17-208) above, with F160V counted along it
FcγRIIIa-158V, FcγRIIIa-HEK^WT (human), sequence (P08637 17-208 F176V): as the sequence (P08637 17-208) above, with F160V counted along it
FcγRIIIa-158F-HEK^WT (human), sequence (P08637 17-208): as the sequence (P08637 17-208) above

| Substance | Kd [1] | Kd [2] | Kd [3] | Kd [4] | Kd [5] | Kd [6] | Kd [7] | Kd [8] | Kd [9] | Kd [10] | Kd [11] | Kd [12] | Kd [13] | Kd [14] | Kd [15] | Kd [16] | Kd [17] | Kd [18] | Kd [19] | Kd [20] | further results |
| --- | --- | --- | --- | --- | --- | --- | --- | --- | --- | --- | --- | --- | --- | --- | --- | --- | --- | --- | --- | --- | --- |
| IgG1-G2FS(2-6) (mAb SO57, α2-6 linked Sia) | 400 nM | 260 nM | 290 nM | 260 nM |  |  |  |  |  |  |  |  |  |  |  |  |  |  |  |  |  |
| IgG1-G2FS(2-6) (mAb SO57) (antibody) |  |  |  |  | 398 nM | 1050 nM | 289 nM | 145 nM | 281 nM | 1110 nM | 1860 nM | 260 nM | 275 nM | 1110 nM | 964 nM | 261 nM | 1240 nM |  |  |  |  |
| IgG1-Hybrid (mAb SO57) (antibody) |  |  |  |  | 1070 nM | 2510 nM | 426 nM | 399 nM | 471 nM | 2660 nM | 4610 nM | 808 nM | 598 nM | 2200 nM | 2210 nM | 693 nM |  | 2230 nM | 573 nM | 869 nM |  |
| IgG1-Monoantennae (mAb SO57) (antibody) |  |  |  |  | 935 nM |  | 731 nM | 375 nM | 742 nM |  |  | 698 nM | 761 nM |  |  | 643 nM |  | 3260 nM | 755 nM | 635 nM |  |
| IgG1-G2FS(2-3) (mAb SO57) (antibody) |  |  |  |  | 385 nM | 1190 nM | 312 nM | 143 nM | 302 nM | 1220 nM | 1880 nM | 275 nM | 275 nM | 1340 nM | 1220 nM | 259 nM | 1330 nM | 953 nM | 259 nM | 288 nM | Kd [21]: 832 nM |
| IgG1-G0 (mAb SO57, afucosylated, agalactosylated) | 38 nM |  | 38 nM |  |  |  |  |  |  |  |  |  |  |  |  |  |  |  |  |  | Kd [22]: 37 nM; Kd [23]: 14 nM; Kd [24]: 33 nM |
| IgG1-Monoantennae (mAb SO57, monoantennary N-glycan) | 930 nM | 640 nM | 730 nM | 700 nM |  |  |  |  |  |  |  |  |  |  |  |  |  |  |  |  | Kd [22]: 640 nM; Kd [25]: 750 nM; Kd [23]: 380 nM; Kd [24]: 740 nM |
| IgG1-G0 (mAb SO57) (antibody) |  |  |  |  |  |  | 37.6 nM | 14.2 nM | 33 nM |  | 213 nM | 29.6 nM | 32.9 nM | 170 nM | 164 nM |  | 184 nM |  | 29.7 nM | 36.9 nM |  |
| IgG1-Oligomannose (mAb SO57, Man5) |  | 87 nM |  | 88 nM |  |  |  |  |  |  |  |  |  |  |  |  |  |  |  |  | Kd [25]: 80 nM; Kd [23]: 38 nM |
| IgG1-Oligomannose (mAb SO57) (antibody) |  |  |  |  | 123 nM | 383 nM | 109 nM | 37.6 nM | 104 nM | 405 nM | 582 nM | 88.3 nM | 93.2 nM | 428 nM | 406 nM | 87.2 nM | 480 nM |  | 79.6 nM |  |  |
| IgG1-G2F (mAb SO57) (antibody) |  |  |  |  | 377 nM | 1150 nM | 305 nM |  | 297 nM | 1210 nM | 1860 nM | 270 nM |  | 1270 nM | 1210 nM | 263 nM | 1370 nM | 965 nM | 262 nM | 278 nM | Kd [21]: 851 nM |
| IgG1-G2F (mAb SO57, galactosylated) | 380 nM | 260 nM | 300 nM | 270 nM |  |  |  |  |  |  |  |  |  |  |  |  |  |  |  |  | Kd [25]: 260 nM; Kd [24]: 300 nM |
| IgG1-Hybrid (mAb SO57, hybrid N-glycan) | 1100 nM | 690 nM |  | 810 nM |  |  |  |  |  |  |  |  |  |  |  |  |  |  |  |  | Kd [22]: 870 nM; Kd [23]: 400 nM; Kd [24]: 470 nM |
| IgG1-CHO^WT (anti-rabies human IgG1 mAb SO57 from wild-type CHO) (antibody) |  |  |  |  | 624 nM | 2160 nM | 489 nM | 242 nM | 456 nM | 2220 nM | 3490 nM | 464 nM | 440 nM | 2350 nM | 2330 nM | 440 nM | 2540 nM | 1780 nM | 443 nM | 489 nM | Kd [21]: 1680 nM |
| IgG1-G2FS(2-3) (mAb SO57, α2-3 linked Sia) |  | 260 nM | 310 nM |  |  |  |  |  |  |  |  |  |  |  |  |  |  |  |  |  | Kd [22]: 290 nM; Kd [25]: 260 nM; Kd [24]: 300 nM |
